Assay results from patent publication US20240376455.

Key:
Assay in all cases: cleavage_in_vitro
[1] = test system: T1, LPG10136 (Bacillus endophyticus); settings: PAM NNNNCC
T1 sequence: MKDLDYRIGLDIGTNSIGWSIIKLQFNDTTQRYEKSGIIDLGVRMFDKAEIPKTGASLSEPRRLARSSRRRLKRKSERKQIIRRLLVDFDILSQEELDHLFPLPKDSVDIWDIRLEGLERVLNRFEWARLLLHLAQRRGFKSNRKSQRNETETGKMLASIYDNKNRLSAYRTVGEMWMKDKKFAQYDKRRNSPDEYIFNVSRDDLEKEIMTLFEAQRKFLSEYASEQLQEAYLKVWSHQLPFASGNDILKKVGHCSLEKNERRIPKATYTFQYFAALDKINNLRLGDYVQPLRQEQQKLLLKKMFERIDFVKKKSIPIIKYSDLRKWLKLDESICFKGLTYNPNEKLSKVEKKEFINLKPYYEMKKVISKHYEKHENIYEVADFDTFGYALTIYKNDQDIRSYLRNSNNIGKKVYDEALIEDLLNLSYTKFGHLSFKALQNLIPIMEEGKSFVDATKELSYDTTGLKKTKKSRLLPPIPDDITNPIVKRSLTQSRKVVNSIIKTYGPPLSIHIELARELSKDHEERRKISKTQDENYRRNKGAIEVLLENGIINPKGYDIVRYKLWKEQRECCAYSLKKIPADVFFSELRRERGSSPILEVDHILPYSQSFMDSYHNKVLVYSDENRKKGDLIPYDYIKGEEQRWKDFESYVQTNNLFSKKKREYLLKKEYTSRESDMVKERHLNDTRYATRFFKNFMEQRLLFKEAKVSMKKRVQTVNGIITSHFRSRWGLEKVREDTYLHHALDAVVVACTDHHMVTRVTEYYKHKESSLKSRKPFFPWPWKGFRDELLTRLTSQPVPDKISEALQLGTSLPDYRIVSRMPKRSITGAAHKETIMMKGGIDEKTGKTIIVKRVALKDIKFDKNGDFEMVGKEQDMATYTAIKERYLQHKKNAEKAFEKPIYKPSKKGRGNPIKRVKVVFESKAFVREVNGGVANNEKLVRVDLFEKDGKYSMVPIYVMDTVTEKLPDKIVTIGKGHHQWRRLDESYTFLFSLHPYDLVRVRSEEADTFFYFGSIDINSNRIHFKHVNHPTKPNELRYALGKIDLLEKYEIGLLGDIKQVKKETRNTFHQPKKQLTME

[2] = test system: T2, LPG10138 (Bacillus megaterium)
T2 sequence: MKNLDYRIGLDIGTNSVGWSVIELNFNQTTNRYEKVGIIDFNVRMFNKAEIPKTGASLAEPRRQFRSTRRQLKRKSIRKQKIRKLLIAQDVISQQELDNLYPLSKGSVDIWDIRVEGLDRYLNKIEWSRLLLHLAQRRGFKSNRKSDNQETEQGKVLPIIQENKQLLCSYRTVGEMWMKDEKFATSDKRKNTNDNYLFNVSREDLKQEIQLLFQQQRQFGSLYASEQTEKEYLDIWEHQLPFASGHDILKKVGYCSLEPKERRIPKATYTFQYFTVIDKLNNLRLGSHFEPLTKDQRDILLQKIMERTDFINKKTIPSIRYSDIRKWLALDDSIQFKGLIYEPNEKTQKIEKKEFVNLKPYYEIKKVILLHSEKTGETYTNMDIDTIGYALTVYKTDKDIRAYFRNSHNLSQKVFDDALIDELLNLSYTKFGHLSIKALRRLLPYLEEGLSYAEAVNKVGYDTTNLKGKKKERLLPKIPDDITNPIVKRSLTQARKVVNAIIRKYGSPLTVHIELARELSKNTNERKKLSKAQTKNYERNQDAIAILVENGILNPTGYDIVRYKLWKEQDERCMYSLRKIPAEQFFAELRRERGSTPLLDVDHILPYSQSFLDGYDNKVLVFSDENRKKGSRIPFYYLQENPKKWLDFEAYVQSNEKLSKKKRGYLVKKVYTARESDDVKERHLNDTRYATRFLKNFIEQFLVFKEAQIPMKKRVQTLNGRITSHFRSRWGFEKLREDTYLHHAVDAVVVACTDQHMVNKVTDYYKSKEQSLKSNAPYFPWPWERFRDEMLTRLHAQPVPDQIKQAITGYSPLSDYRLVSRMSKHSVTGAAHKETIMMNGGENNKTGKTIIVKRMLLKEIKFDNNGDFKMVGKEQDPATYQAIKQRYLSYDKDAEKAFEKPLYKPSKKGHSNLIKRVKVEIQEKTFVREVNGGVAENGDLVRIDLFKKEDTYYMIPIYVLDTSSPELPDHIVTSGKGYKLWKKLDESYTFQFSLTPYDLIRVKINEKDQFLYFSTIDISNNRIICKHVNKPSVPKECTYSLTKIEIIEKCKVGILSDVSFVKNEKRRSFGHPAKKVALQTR

[3] = test system: T3, LPG10146 (Bifidobacterium thermacidophilum); settings: PAM SEQ ID 79
T3 sequence: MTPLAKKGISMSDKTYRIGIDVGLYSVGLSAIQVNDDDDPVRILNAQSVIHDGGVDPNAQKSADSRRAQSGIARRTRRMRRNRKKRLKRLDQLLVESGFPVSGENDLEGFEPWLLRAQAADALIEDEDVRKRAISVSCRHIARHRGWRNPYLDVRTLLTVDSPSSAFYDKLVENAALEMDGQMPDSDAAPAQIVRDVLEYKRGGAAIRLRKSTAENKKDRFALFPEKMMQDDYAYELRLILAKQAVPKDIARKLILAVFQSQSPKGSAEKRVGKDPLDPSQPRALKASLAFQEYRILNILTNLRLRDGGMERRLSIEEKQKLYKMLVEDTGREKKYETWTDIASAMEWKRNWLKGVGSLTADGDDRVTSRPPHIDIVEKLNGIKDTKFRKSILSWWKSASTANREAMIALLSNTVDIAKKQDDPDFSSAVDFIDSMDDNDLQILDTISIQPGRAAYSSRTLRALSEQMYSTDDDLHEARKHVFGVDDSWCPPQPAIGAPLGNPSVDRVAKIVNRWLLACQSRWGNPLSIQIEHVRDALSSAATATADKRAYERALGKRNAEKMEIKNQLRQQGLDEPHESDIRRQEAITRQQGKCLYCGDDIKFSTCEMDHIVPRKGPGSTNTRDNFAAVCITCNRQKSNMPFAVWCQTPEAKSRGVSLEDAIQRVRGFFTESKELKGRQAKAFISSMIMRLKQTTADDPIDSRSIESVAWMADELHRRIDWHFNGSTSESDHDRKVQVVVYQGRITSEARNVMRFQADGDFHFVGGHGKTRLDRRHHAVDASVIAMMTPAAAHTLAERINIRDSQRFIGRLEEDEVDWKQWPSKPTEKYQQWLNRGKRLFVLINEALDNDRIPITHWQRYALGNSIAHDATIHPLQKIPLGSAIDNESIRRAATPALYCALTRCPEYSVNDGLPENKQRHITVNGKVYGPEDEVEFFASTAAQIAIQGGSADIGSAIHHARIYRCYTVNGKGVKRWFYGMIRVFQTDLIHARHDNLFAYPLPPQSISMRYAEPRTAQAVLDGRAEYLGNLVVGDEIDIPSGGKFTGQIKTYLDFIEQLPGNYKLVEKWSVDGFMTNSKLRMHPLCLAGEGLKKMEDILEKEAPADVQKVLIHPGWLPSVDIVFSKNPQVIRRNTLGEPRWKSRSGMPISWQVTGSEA

GUCAUAGUUCCACUAAAGCCAUUAAAGAAUGGCUUUGAUGUUUCUAUGAUAAGGGUUUCGACCCGUGGCGUUGGGGAUCGCCUGCCCAUUUCGAUGGGCGUCUCCCCAUUU / GATATAGACGTTGTGGCTGTTGTAGTAGGACTTC / GAAGTCCTACTACAACAGCCACAACGTCTATATC [LPG10136 sgRNA L2 ; Library 2 target AGGACTTC]
activity (% target strand cleaved) ([1]; suboptimal PAM context): 11.3

GUCAUAGUCCCAUCAUAUCCAUUGCAAAGGCAAUGGAUAUGAUGUUUCUAUGAUAAGGGCUCUCUAAGAGAGACCUGUGGCGUUGGGGAUCGCCUGCCCGUUUCGACGGGUGUCUCCCCAUUU / GATATAGACGTTGTGGCTGTTGTAGTAGGAATTC / GAATTCCTACTACAACAGCCACAACGTCTATATC [LPG10138 sgRNA L2 ; Library 2 target AGGAATTC]
activity (% target strand cleaved) ([2]; PAM context AGGAATTC): 0

GCUGAGAAUUAGCAUCCUUCAAAGGAAGAAGCUAAUUCUCAGUAAGUACAGCAAUUAAUAGCUGUAUCUGAAUGCUAAGCGGUUAGCCGCAGGGGAGAGCUUCGGCUCUCCCCGUUCUUUU / GATATAGACGTTGTGGCTGTTGTAGTAGGAAACC / GGTTTCCTACTACAACAGCCACAACGTCTATATC [LPG10146 sgRNA L2 ; Library 2 target AGGAAACC]
activity (% target strand cleaved) [3]: 48.9

GUCAUAGUCCCAUCAUAUCCAUUGCAAAGGCAAUGGAUAUGAUGUUUCUAUGAUAAGGGCUCUCUAAGAGAGACCUGUGGCGUUGGGGAUCGCCUGCCCGUUUCGACGGGUGUCUCCCCAUUU / GATATAGACGTTGTGGCTGTTGTAGTAGGACTTC / GAAGTCCTACTACAACAGCCACAACGTCTATATC [LPG10138 sgRNA L2 ; Library 2 target AGGACTTC]
activity (% target strand cleaved) ([2]; PAM SEQ ID 75): 18

GUCAUAGUCCCAUCAUAUCCAUUGCAAAGGCAAUGGAUAUGAUGUUUCUAUGAUAAGGGCUCUCUAAGAGAGACCUGUGGCGUUGGGGAUCGCCUGCCCGUUUCGACGGGUGUCUCCCCAUUU / GGACAGCAGCTTCCTATATCTCGTACAGGACTTC / GAAGTCCTGTACGAGATATAGGAAGCTGCTGTCC [LPG10138 sgRNA L1 ; Library 1 target AGGACTTC]
activity (% target strand cleaved) ([2]; PAM SEQ ID 75): 5.5

GUCAUAGUUCCACUAAAGCCAUUAAAGAAUGGCUUUGAUGUUUCUAUGAUAAGGGUUUCGACCCGUGGCGUUGGGGAUCGCCUGCCCAUUUCGAUGGGCGUCUCCCCAUUU / GGACAGCAGCTTCCTATATCTCGTACAGGACCTC / GAGGTCCTGTACGAGATATAGGAAGCTGCTGTCC [LPG10136 sgRNA L1 ; Library 1 target AGGACCTC]
activity (% target strand cleaved) ([1]; 37C 120 min): 5

GCUGAGAAUUAGCAUCCUUCAAAGGAAGAAGCUAAUUCUCAGUAAGUACAGCAAUUAAUAGCUGUAUCUGAAUGCUAAGCGGUUAGCCGCAGGGGAGAGCUUCGGCUCUCCCCGUUCUUUU / GGACAGCAGCTTCCTATATCTCGTACGGATAACC / GGTTATCCGTACGAGATATAGGAAGCTGCTGTCC [LPG10146 sgRNA L1 ; Library 1 target GGATAACC]
activity (% target strand cleaved) [3]: 0

GUCAUAGUUCCACUAAAGCCAUUAAAGAAUGGCUUUGAUGUUUCUAUGAUAAGGGUUUCGACCCGUGGCGUUGGGGAUCGCCUGCCCAUUUCGAUGGGCGUCUCCCCAUUU / GATATAGACGTTGTGGCTGTTGTAGTAGGACCTC / GAGGTCCTACTACAACAGCCACAACGTCTATATC [LPG10136 sgRNA L2 ; Library 2 target AGGACCTC]
activity (% target strand cleaved) ([1]; 37C 120 min): 30.9

GCUGAGAAUUAGCAUCCUUCAAAGGAAGAAGCUAAUUCUCAGUAAGUACAGCAAUUAAUAGCUGUAUCUGAAUGCUAAGCGGUUAGCCGCAGGGGAGAGCUUCGGCUCUCCCCGUUCUUUU / GATATAGACGTTGTGGCTGTTGTAGTGAGTAACC / GGTTACTCACTACAACAGCCACAACGTCTATATC [LPG10146 sgRNA L2 ; Library 2 target GAGTAACC]
activity (% target strand cleaved) [3]: 57.7
